Test results reported in article PMC9894173 (Proceedings of the National Academy of Sciences of the …, 2022).

Target: His6-FLAG-MBP-tagged DHX15 (aa 113–795) (human, UniProt O43143 113-795)
Assay: co-IP

Chain of His6-FLAG-MBP-tagged DHX15 (aa 113–795) (O43143 113-795): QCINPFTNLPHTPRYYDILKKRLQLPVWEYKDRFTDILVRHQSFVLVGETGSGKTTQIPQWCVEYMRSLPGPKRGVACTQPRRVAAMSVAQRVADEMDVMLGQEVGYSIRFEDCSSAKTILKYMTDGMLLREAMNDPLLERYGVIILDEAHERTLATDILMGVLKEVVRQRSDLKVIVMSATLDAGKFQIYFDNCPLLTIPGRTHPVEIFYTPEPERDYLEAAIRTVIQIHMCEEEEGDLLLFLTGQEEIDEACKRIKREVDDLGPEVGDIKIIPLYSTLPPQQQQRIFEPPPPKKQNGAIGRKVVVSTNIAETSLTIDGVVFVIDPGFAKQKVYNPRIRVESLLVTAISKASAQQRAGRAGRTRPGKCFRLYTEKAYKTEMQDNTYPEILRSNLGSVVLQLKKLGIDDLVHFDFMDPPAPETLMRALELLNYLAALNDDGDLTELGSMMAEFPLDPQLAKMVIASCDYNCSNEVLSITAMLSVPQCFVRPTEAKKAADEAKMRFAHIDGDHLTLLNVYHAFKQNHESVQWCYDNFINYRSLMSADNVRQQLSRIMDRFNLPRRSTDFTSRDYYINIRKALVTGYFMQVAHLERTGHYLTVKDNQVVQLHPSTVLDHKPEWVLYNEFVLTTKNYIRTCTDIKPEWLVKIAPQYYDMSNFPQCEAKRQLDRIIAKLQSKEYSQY

binding result: binds
B1: His6-HA-tagged SUGP1 WT (full length) (natural protein)
chain: MSLKMDNRDVAGKANRWFGVAPPKSGKMNMNILHQEELIAQKKREIEAKMEQKAKQNQVASPQPPHPGEITNAHNSSCISNKFANDGSFLQQFLKLQKAQTSTDAPTSAPSAPPSTPTPSAGKRSLLISRRTGLGLASLPGPVKSYSHAKQLPVAHRPSVFQSPDEDEEEDYEQWLEIKVSPPEGAETRKVIEKLARFVAEGGPELEKVAMEDYKDNPAFAFLHDKNSREFLYYRKKVAEIRKEAQKSQAASQKVSPPEDEEVKNLAEKLARFIADGGPEVETIALQNNRENQAFSFLYEPNSQGYKYYRQKLEEFRKAKASSTGSFTAPDPGLKRKSPPEALSGSLPPATTCPASSTPAPTIIPAPAAPGKPASAATVKRKRKSRWGPEEDKVELPPAELVQRDVDASPSPLSVQDLKGLGYEKGKPVGLVGVTELSDAQKKQLKEQQEMQQMYDMIMQHKRAMQDMQLLWEKAVQQHQHGYDSDEEVDSELGTWEHQLRRMEMDKTREWAEQLTKMGRGKHFIGDFLPPDELEKFMETFKALKEGREPDYSEYKEFKLTVENIGYQMLMKMGWKEGEGLGSEGQGIKNPVNKGTTTVDGAGFGIDRPAELSKEDDEYEAFRKRMMLAYRFRPNPLNNPRRPYY
